EP2085478A1

Biological target: XKVLQT1 (Xenopus KVLQT1 homologue, 1.6 kb partial clone) (Xenopus) (UniProt P70057)
Assay: cell-based or functional assay

Sequence of UniProt P70057 (P70057 other isoform, or with tags, fused parts or gaps): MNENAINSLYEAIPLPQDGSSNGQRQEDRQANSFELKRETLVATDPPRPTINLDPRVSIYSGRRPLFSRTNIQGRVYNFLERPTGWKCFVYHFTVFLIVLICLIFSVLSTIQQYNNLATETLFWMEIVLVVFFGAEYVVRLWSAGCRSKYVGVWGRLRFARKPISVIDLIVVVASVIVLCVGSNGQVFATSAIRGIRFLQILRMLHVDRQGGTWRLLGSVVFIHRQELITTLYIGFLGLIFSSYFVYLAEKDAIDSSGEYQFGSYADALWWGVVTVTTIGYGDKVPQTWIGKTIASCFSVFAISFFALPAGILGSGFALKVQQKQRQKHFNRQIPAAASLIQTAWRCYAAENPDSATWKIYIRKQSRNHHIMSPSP

human minK (from UniProt P15382 1-129) showed an IsK at +40 mV, oocytes injected with 60 pg hminK cRNA of 2.11 µA, an IsK at +40 mV, oocytes injected with 1 ng hminK cRNA of 2.2 µA and a V½ of the normalized isochronal activation curve, oocytes injected with hminK of 2.4 mV.
